No end group written: not given here. biotin = biotin label at C-terminus
Columns and labels:
[1] = molecular target: T1, biotinylated Huntingtin peptide Happ(-) (PGPAVAEEPLHRPG-biotin); assay: ELISA, purified intrabody on poly-proline peptides (FIG. 1C)
T1 construct: also called second biotinylated proline rich peptide; carboxy derived Huntington's peptide
T1 peptide: PGPAVAEEPLHRPG-biotin
Description: (§1) ELISA was performed to determine the binding activity of isolated scFv clones against biotinylated Huntingtin peptide designated Happ(+) ([…]-biotin (SEQ ID NO: 26), and a second biotinylated Huntingtin peptide designated Happ(−) ([…]-biotin (SEQ ID NO: 28). All incubations except antigen coating were carried out at room temperature. Microtiter plates (Nuc) were coated with 100 μl of a biotinlyated Huntingtin peptide solution (2 μg/ml in 50 mM NaHCO3 buffer, pH 9.6) and incubated overnight at 4° C. The plates were washed 3 times with 200 μl of 1×TBS (50 mM Tris-Cl, 150 mM NaCl pH 8.0) and blocked with 100 μl of 2% milk in TBS for 2 hr. Plates were washed once with 200 μl of 1×TBS. In some experiments, preblocked Strepavidin coated plates (Pierce) were used to bind biotinylated peptide. Cell extracts (50 μl) or purified StrepII tagged Intrabodies were added to the antigen-coated blocked plates and incubated for 1.5 hr. Extracts of E. coli cultures from individual colonies selected by panning after overnight induction with IPTG were prepared by lysis in B-Per (Pierce) as described by the manufacturer and centrifuged at 10,000×g for 10 minutes to remove cell wall and debris. Supernatants from these extracts were used directly or diluted with TBS (1:2, 1:4) prior to use. […] The optical density (OD) was measured at 405 nm on a spectrophotometer and the level of scFv binding determined. […]

[2] = molecular target: T2, biotinylated Huntingtin peptide Happ(+) (RPQLPQPPPQAQPRGGGSK-biotin); assay: as above
T2 construct: also called biotinylated PRP; poly-proline peptide
T2 peptide: RPQLPQPPPQAQPRGGGSK-biotin
Description: as §1

[3] = molecular target: T1, biotinylated Huntingtin peptide Happ(-) …; assay: ELISA, H8 in E. coli lysate against purified H8; peptide not given
[4] = molecular target: T2, biotinylated Huntingtin peptide Happ(+) …; assay: as above
[5] = molecular target: T2, biotinylated Huntingtin peptide Happ(+) …; assay: ELISA, purified scFv on biotinylated peptide
Description: as §1

[6] = molecular target: T1, biotinylated Huntingtin peptide Happ(-) …; assay: ELISA, purified intrabody on poly-proline peptides (FIG. 1A)
Description: as §1

[7] = molecular target: T1, biotinylated Huntingtin peptide Happ(-) …; assay: ELISA, purified intrabody on poly-proline peptides (FIG. 1B)
Description: as §1

[8] = molecular target: T2, biotinylated Huntingtin peptide Happ(+) …; assay: as above
Description: as §1

B1: E10 (scFv)
scFv: MAEVQLVVSGGGLVKPGGSMILSCAASGFTFSNYSMNWVRQAPGKGLEWVSSISSSSEYIYYADFVKGRFTISRDNAKNSLYLQMDSLRAEDTAVYYCAITGCECTWGRGTLVTVSSGGGGSGGGGSGGGGSQSVLTQPASVSGSPGQSITISCAGTSSDVGGYNYVSWYQQHPGKAPKLMIYEDSKRPSGVSNRFSGSKSGNTASLTISGLRAEDEADYYCSCIRGLKAAYFGGGTKLAVLGAAAEQKLIS
notes: Single chain intrabody; purified with a carboxy terminal StrepII tag for the ELISA; not shown: carboxy terminal StrepII tag of the purified form (pET24)
binding result [1]: binds | binding result [2]: binds

B2: H8 (scFv)
scFv: MAEVQLVVSGGGLVKPGGSMILSCAASGFTFSNYSMNWVRQAPGKGLEWVSSISSSSEYIYYADFVKGRFTISRDNAKNSLYLQMDSLRAEDTAVYYCAAAVCNGRPDTWGRGTLVTVSSGGGGSGGGGSGGGGSQSVLTQPASVSGSPGQSITISCAGTSSDVGGYNYVSWYQQHPGKAPKLMIYEDSKRPSGVSNRFSGSKSGNTASLTISGLRAEDEADYYCGYSLLPVLFGGGTKLAVLGAAAEQKLIS
notes: Single chain intrabody; tested purified (StrepII tag) and also in E. coli lysate form; not shown: carboxy terminal StrepII tag of the purified form (pET24)
fold signal, lysate form against purified form [3]: 3 times | fold signal, lysate form against purified form [4]: 3 times

B3: INT41 (scFv)
scFv: MAEVQLVVSGGGLVKPGGSMILSCAASGFTFSNYSMNWVRQAPGKGLEWVSSISSSSEYIYYADFVKGRFTISRDNAKNSLYLQMDSLRAEDTAVYYCAWPGYRKAWGRGTLVTVSSGGGGSGGGGSGGGGSQSVLTQPASVSGSPGQSITISCAGTSSDVGGYNYVSWYQQHPGKAPKLMIYEDSKRPSGVSNRFSGSKSGNTASLTISGLRAEDEADYYCSYCASKGHWLFGGGTKLAVLGAAAEQKLIS
notes: Single chain intrabody (VH-linker-VL) from the T3 scFv library; Purified from E. coli with a carboxy terminal StrepII tag for the ELISA; also called INT41 intrabody; not shown: carboxy terminal StrepII tag of the purified form (pET24)
binding result [5]: binds | binding result [6]: binds

B4: A2 (scFv)
scFv: MAEVQLVVSGGGLVKPGGSMILSCAASGFTFSNYSMNWVRQAPGKGLEWVSSISSSSEYIYYADFVKGRFTISRDNAKNSLYLQMDSLRAEDTAVYYCAHWPRLWRFPLWGRGTLVTVSSGGGGSGGGGSGGGGSQSVLTQPASVSGSPGQSITISCAGTSSDVGGYNYVSWYQQHPGKAPKLMIYEDSKRPSGVSNRFSGSKSGNTASLTISGLRAEDEADYYCVLNMHWANFGGGTKLAVLGAAAEQKLIS
notes: as for B1
binding result [7]: binds | binding result [8]: binds
